# “And” between values parts separate entries of the source, which are not always exact repeats. Identical values can stand only once.
# B1: anti-NRR2: affinity matured form of Antibody D, phage library-derived human anti-Notch2 NRR monoclonal antibody (antibody, V domains shown)
# VH: EVQLVESGGGLVQPGGSLRLSCAASGYTFSSYGMSWVRQAPGKGLEWVSYIYPYSGATYYADSVKGRFTISADTSKNTAYLQMNSLRAEDTAVYYCARHSGYYRISSAMDVWGQGTLVTVSA
# VL: DIQMTQSPSSLSASVGDRVTITCRASQNIKRFLAWYQQKPGKAPKLLIYGASTRESGVPSRFSGSGSGTDFTLTISSLQPEDFATYYCQQYYRSPHTFGQGTKVEIKR
# How the values were obtained:
# Notch2 signaling = assay: Co-culture Notch reporter assay, Notch2 signaling (U87MG cells + Jag1 cells); format: cell-based
# Method: NIH-3T3 cells stably transfected with Jag1 were used to induce Notch signaling in NIH-3T3 cells stably transfected with Notch1 (except for “−Jag1”, which used untransfected NIH-3T3 cells in place of the Jag1-expressing cells). […] NIH-3T3 cells stably transfected with Jag1 were used to induce Notch signaling in U87MG cells, which express high levels of Notch2. The assay was performed as described in (A). […] The assay was performed as in (A) except that the receptor-expressing cells were generated by transient transfection of plasmids expressing the indicated Notch1 receptors.
# Co-culture assay in U87MG cells, as described in FIG. 10B.
# NIH-3T3 cells either stably transfected with Notch 1 or transiently transfected with plasmids containing other Notch receptors were co-transfected with a Notch-responsive TP-1 (12× CSL) Firefly luciferase reporter and a constitutively active Renilla Luciferase reporter (pRL-CMV, Promega) to control for transfection efficiency. Cells are allowed to recover from the transfection from 6 hours to overnight. Treatments of antibodies and NIH-3T3 cells stably transfected with ligand are used to stimulate the receptor cells. After 20 hours, firefly and Renilla luciferase are measured with Dual Glo Luciferase Assay system (Promega). Eight replicates were analyzed for each condition by dividing the Firefly signal by the Renilla signal to control for transfection efficiency. The mean and standard deviation were calculated and values were normalized to calculated values for co-culture stimulated with NIH-3T3 cells without ligand transfected.
# SK23 melanoma cells = assay: Cell Titer Glo viability of melanoma cell line SK23; format: cell-based, human; settings: six days, antibodies 20 mg/ml, DAPT 5 μM, ± Jagged-1
# Method: Human melanoma cell lines SK23 and LOX-IMVI were plated in medium containing 2% FBS at low density (4000 cells/well for SK23, 2500 cells/well for LOX-IMVI) in 96 well plates that were coated without (−jag-1) or with Jagged-1 ligand (+jag-1) (R&D Systems, Minneapolis, Minn.). […] An equal volume of DMSO served as the vehicle control, whereas an equal concentration of anti-gD HuB6 phage antibody served as the isotype control antibody. Cell Titer Glo assays (Promega, Madison, Wis.) were performed six days after plating. […] In FIGS. 25A and 25B, cell viability (y-axis) is expressed relative to the values from the DMSO vehicle, −jag-1 control wells.
# [1] = tested on: thymus, CD4+/CD8+ double-positive T cells; assay: In vivo thymus / T cell development in Balb/c mice; parameters: species or system mouse; settings: 5 mg/kg four times every four days
# Method: (§1) Balb/c mice were injected four times every four days with 5 mg/kg of α-gD isotype control, α-NRR1 or α-NRR2, and cells were harvested from the thymus or spleen on day 13, one day after the fourth dose. (A) Thymus weight measurements. Thymus weights (in mg) are expressed relative to total body weight (in g). Values represent the mean plus standard deviation for three mice per group. (B) Thymus cell count. (C) CD4 and CD8 FACS to identify CD4^+/CD8^+ double-positive T cells. Numbers represent the percentage of thymic cells in the double-negative, single-positive and double-positive populations. […] (D) CD21 and CD23 FACS to identify marginal zone B cells. Numbers represent the mean percentages ±standard deviation (from three animals) of cells within the MZB gate, which is boxed; p values are also noted; representative dot plots from one of the three animals in each group are graphed.
# (§2) Splenocytes were isolated from the mice and were stained for FACS with B220-PerCP, CD23-PE and CD21-FITC (BD Biosciences) as previously described (Saito, et al., Immunity, Vol. 18, 675-685, May 2003).
# [2] = tested on: Notch1-NRR / Notch2 NRR chimeric proteins; assay: Epitope mapping: plate binding to Notch1-NRR/Notch2 NRR chimeric proteins fused to alkaline phosphatase; settings: domain swap
# Method: The indicated NRR protein fragments (dark blue, Notch1 sequences; light blue, Notch2 sequences) were expressed as secreted proteins fused to alkaline phosphatase to enable rapid measurements of antibody binding in a plate-based assay. […] Antibody binding was assessed by measuring alkaline phosphatase activity that remained bound to the plate. […] (B) Structure of human Notch NRR1. NRR1 is shown as a C-alpha cartoon. The three calcium ions in the LNR motifs are shown as spheres. The position of the S2 cleavage site is marked with an arrow. (C) Superposition of NRR1 on NRR2 (chain A from pdb code 2OO4) based on structurally conserved atoms. NRR1 (shaded) and NRR2 (white) are shown as C-alpha traces. (D) Open-book view of the interface between NRR1 (left) and α-NRR1 Fab (right, border between heavy and light chains shown as a black dashed line). The extent to which the solvent accessible surface area is buried by complex formation is indicated.
# Synthetic Notch1 and Notch2 NRR sequences were designed with unique restriction sites at junctions between the five domains of the NRR-LNR-A; LNR-B; LNR-C; HD-N; and HD-C—and produced by Blue Heron Technology (Bothell, Wash.). Swapping various domains between the two synthetic sequences, using the engineered restriction sites, generated chimeric NRR proteins. The chimeric clones were assembled in a modified pUC19 vector and transferred to a SEAP containing vector, pCSC.AP, for expression. AP-tagged NRR proteins were produced by transfection of 293T cells. After 72 hr culture, the conditioned media was collected, cleared by centrifugation, and tested for AP activity using the Phospha-Light System (Applied Biosystems, Bedford, Mass.). The AP activity in each sample was normalized and an ELISA was performed to test the ability of α-NRR1 or α-NRR2 to bind the chimeric NRR proteins. The ELISA was performed as follows: either α-NRR1 or α-NRR2 was captured by a plate bound α-Fc antibody in 96-well format and incubated with the conditioned media overnight. The plate was washed to remove unbound protein, and the captured protein was tested for AP activity using the Phospha-Light System.
# [3] = tested on: splenic marginal zone B (MZB) cells; assay: Marginal zone B cell analysis in Balb/c mice; format: in vivo, mouse; settings: 5 mg/kg, spleen, CD21/CD23 FACS, three animals
# Method: as §1, §2
# [4] = Total body weight change in antibody-dosed mice; format: in vivo, mouse
# Description: (A) Total body weight change (mean+/−standard deviation) vs. time. […] Arrows mark the days of dosing. (B) Immunohistochemical analyses of small intestines. […] In each row as indicated, staining is shown for haemotoxylin and eosin (H & E), Alcian Blue for mucin and to mark secretory goblet cells, lysozyme to mark Paneth cells, Ki-67 for proliferation and Hes1 as a Notch downstream target. See FIGS. 19 and 20 for analyses of the large intestine at day 7 and of the small intestine at day 2, respectively. Bar=40 μm. (C) Comparison of Notch1- versus Notch2-specific inhibition on small intestinal cell differentiation. Small intestines from the study described in (A) were prepared for Alcian Blue and Ki-67 one day after the final dosing with α-gD, α-NRR1 or α-NRR2, as indicated. Bar=50 μm.
# (B) Immunohistochemical analyses of small intestines from mice treated as in (A), using Alcian Blue for mucin to mark secretory goblet cells.
molecule,measurement,setting,value
B1,effect on Notch2 reporter signaling,"Notch2 signaling; Jag1-induced, DAPT 5 μM",inhibition of Notch2 signaling
same,"inhibition of signaling induced through Jag1, Jag2, D111 and D114",Notch2 signaling; all Notch ligands tested,inhibited signaling
same,cell viability,SK23 melanoma cells,decrease in viability
same,total number of cells in the thymus,[1]; day 13,not
same,percentage of thymic cells in the CD4+/CD8+ population,"[1]; day 13, FACS",80%
same,binding to chimera containing only the LNR-A and HD-C subdomains from NRR2,[2],weak but detectable binding
same,binding to chimera with LNR-A of NRR1 in the NRR2 backbone,[2],completely disrupted
same,binding to chimeras C.Hn and BC (only three subdomains from NRR2),[2],full binding
same,binding to chimeras with swaps of LNR-B or LNR-C in the NRR2 backbone,[2],no effect
same,percentage of cells within the MZB gate (mean ± standard deviation),[3],0.97% and 0.97+/−0.45%
same,total body weight change,[4]; first experiment (FIG. 15A),weight gains
same,effect on weight,"[4]; second experiment, 5 mg/kg (FIG. 24A)",little or no effect

# Reference: patent US8404239B2, “Anti-Notch2 NRR antibodies” (Genentech, Inc., priority 2008, dated 2013)
